As usually defined, the Kd is the equilibrium constant for the complex coming apart. High values mean a looser complex, low ones a tighter complex.

Test [1] has as its target T1, human GLP-1 receptor (Abcam) (human, UniProt P43220 24-145).
T1 chain: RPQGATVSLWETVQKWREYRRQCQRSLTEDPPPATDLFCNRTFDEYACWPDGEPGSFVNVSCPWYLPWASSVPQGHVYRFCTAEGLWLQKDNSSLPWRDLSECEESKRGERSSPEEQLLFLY
Put plainly: BLI.

The target in another test is Dulaglutide. Briefly: BLI. For orientation: In BLI a coated tip is dipped into the sample, and binding shifts an interference pattern.

B1: GLP-1(A2G)-hyFc9 (Fc fusion)
chain: HGEGTFTSDVSSYLEGQAAKEFIAWLVKGRGAKATTAPATTRNTGRGGEEKKKEKEKEEQEERETKTPECPSHTQPLGVFLFPPKPKDTLMISRTPEVTCVVVDVSQEDPEVQFNWYVDGVEVHNAKTKPREEQFNSTYRVVSVLTVLHQDWLNGKEYKCKVSNKGLPSSIEKTISKAKGQPREPQVYTLPPSQEEMTKNQVSLTCLVKGFYPSDIAVEWESNGQPENNYKTTPPVLDSDGSFFLYSRLTVDKSRWQEGNVFSCSVMHEALHNHYTQKSLSLSLGK
modifications: O-glycosylation at the IgD hinge region (positions not stated)
Take B1: the Kd in test [1] came to 45 µM.

B2: GLP-1 receptor (receptor)
chain: T1 chain
As for B2, the Kd with Dulaglutide came to 0.395 µM.
